Starred links: 1 amine or outer side, 2 acyl side, 3 side chain; linkers in the order of their positions; H or OH if unused. Positions of bridges follow the written chain, without caps; N, C: chain ends. Non-standard residues stand in square brackets, D forms with d. Primed or numbered codes have the meaning given here. PyrS2 = (S)-3-amino-1-((pent-4-en-1-yloxy)carbonyl)pyrrolidine-3-carboxylic acid, C=CCCCOC(=O)N1CC[C@@](N[*:1])(C(=O)[*:2])C1; B5(27) = 2-amino-2-(pent-4-en-1-yl)hept-6-enoic acid (two alkene side-chain arms), C=CCCCC(CCCC=C)(N[*:1])C(=O)[*:2]; F2PipNva = (S)-2-amino-5-(4,4-difluoropiperidin-1-yl)pentanoic acid, O=C([C@H](CCCN1CCC(F)(F)CC1)N[*:1])[*:2]; MorphAbu = (S)-2-amino-4-morpholinobutanoic acid, O=C([C@H](CCN1CCOCC1)N[*:1])[*:2]; Nva(5-morpholino) = N[C@@H](CCCN1CCOCC1)C(=O)O; Bta = N[C@@H](Cc1csc2ccccc12)C(=O)O; αAllylPro = C=CC[C@@]1(C(=O)O)CCCN1; tBuAla = CC(C)(C)C[C@H](N)C(=O)O; 3Thi = N[C@@H](Cc1ccsc1)C(=O)O; hSer = N[C@@H](CCO)C(=O)O
T1: B-cat-Halo (beta-catenin HaloTag fusion expressed in HEK293 cells) (UniProt P35222 1-781, HaloTag labelled with HaloTag NanoBRET 618 Ligand)
T1 sequence (looked up): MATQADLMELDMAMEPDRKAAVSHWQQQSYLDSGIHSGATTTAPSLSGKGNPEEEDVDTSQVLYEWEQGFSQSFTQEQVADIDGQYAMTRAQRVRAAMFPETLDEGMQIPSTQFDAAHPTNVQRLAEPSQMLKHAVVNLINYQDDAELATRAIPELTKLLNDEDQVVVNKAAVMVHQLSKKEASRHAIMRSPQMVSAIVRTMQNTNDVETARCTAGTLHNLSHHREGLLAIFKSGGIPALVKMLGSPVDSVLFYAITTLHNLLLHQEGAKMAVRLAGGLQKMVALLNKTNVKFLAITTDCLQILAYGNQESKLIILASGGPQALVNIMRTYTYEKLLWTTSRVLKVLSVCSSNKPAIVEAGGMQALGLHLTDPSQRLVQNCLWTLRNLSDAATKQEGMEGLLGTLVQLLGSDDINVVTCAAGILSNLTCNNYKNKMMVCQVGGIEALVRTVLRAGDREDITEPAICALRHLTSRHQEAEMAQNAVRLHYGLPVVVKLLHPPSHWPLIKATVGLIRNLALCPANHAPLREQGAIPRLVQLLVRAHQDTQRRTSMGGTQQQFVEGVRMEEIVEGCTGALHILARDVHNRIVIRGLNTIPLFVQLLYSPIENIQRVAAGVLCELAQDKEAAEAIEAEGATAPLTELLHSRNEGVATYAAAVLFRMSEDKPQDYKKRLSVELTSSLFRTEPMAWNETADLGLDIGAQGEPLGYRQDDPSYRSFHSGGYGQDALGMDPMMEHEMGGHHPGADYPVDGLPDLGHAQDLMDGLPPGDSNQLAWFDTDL

T2: full-length beta-Catenin (Uniprot ID P35222) (Homo sapiens (Human), UniProt P35222 1-781)
T2 construct: the AlphaScreen used a Histidine (Nickel Chelate) detection kit, so a His tag is likely but not described; also called B-Catenin; bCat
T2 sequence: T1 sequence (looked up)

B1: I-318 (peptide)
peptide: XDAXDDAAFVXFWQ
modifications: not fully specified; N-terminal acetyl (Ac); C-terminal amide (NH2); PL3 at 1, B5 at 4, S8 at 11, 2FF at 12; stapled PL3-B5 and B5-S8
notes: Ac-PL3-Asp-Ala-B5-Asp-Asp-Ala-Ala-Phe-Val-S8-2FF-Trp-Gln-NH2; stapled peptide composition
B2: I-314 (peptide)
peptide: XHAXDEAAFVXFWQ
modifications: not fully specified; N-terminal acetyl (Ac); C-terminal amide (NH2); PL3 at 1, B5 at 4, S8 at 11; stapled PL3-B5 and B5-S8
notes: Ac-PL3-His-Ala-B5-Asp-Glu-Ala-Ala-Phe-Val-S8-Phe-Trp-Gln-NH2; stapled peptide composition
B3: I-313 (peptide)
peptide: XDAXDDAAFVXFWQ
modifications: not fully specified; N-terminal acetyl (Ac); C-terminal amide (NH2); PL3 at 1, B5 at 4, S8 at 11, 4ClF (printed 4C1F) at 12; stapled PL3-B5 and B5-S8
notes: Ac-PL3-Asp-Ala-B5-Asp-Asp-Ala-Ala-Phe-Val-S8-4C1F-Trp-Gln-NH2; stapled peptide composition
B4: I-312 (peptide)
peptide: XDAXDDAAFVXFWQ
modifications: not fully specified; N-terminal acetyl (Ac); C-terminal amide (NH2); PL3 at 1, B5 at 4, S8 at 11, 4ClF (printed 4C1F) at 12; stapled PL3-B5 and B5-S8
notes: as for B3
B5: I-310 (peptide)
peptide: XDAXDDAAFVXFWQ
modifications: not fully specified; N-terminal acetyl (Ac); C-terminal amide (NH2); PL3 at 1, B5 at 4, S8 at 11, 3ClF (printed 3C1F) at 12; stapled PL3-B5 and B5-S8
notes: Ac-PL3-Asp-Ala-B5-Asp-Asp-Ala-Ala-Phe-Val-S8-3C1F-Trp-Gln-NH2; stapled peptide composition
B6: I-315 (peptide)
peptide: XHAXDEAAFVXFWQ
modifications: not fully specified; N-terminal acetyl (Ac); C-terminal amide (NH2); PL3 at 1, B5 at 4, S8 at 11; stapled PL3-B5 and B5-S8
notes: as for B2
B7: I-311 (peptide)
peptide: XDAXDDAAFVXFWQ
modifications: not fully specified; N-terminal acetyl (Ac); C-terminal amide (NH2); PL3 at 1, B5 at 4, S8 at 11, 3ClF (printed 3C1F) at 12; stapled PL3-B5 and B5-S8
notes: as for B5
B8: I-319 (peptide)
peptide: XDAXDDAAFVXFWQ
modifications: not fully specified; N-terminal acetyl (Ac); C-terminal amide (NH2); PL3 at 1, B5 at 4, S8 at 11, 2FF at 12; stapled PL3-B5 and B5-S8
notes: as for B1

Biological target: T1, B-cat-Halo (beta-catenin HaloTag fusion …)
Assay: cell-based or functional assay

Row | Binder | NanoBRET Abs IC50
1 | Ac-[αAllylPro]D[tBuAla][B5(27)]DDA[MorphAbu]FL[PyrS2][3Thi][Bta]Q-NH2 (staple 1-4, 4-11) [I-1504] | > 20 µM
2 | Ac-[αAllylPro]D[tBuAla][B5(27)]DDA[F2PipNva]FL[PyrS2][3Thi][Bta]Q-NH2 (staple 1-4, 4-11) [I-1502] | > 20 µM
3 | Ac-[αAllylPro]D[tBuAla][B5(27)]DDA[Nva(5-morpholino)]FL[PyrS2][3Thi][Bta]Q-NH2 (staple 1-4, 4-11) [I-1501] | > 20 µM
4 | Ac-[αAllylPro]D[tBuAla][B5(27)]DDAAFL[PyrS2][3Thi][Bta]W-NH2 (staple 1-4, 4-11) [I-1497] | 11.4 µM
5 | Ac-[αAllylPro]D[tBuAla][B5(27)]DDAAFL[PyrS2][3Thi][Bta]T-NH2 (staple 1-4, 4-11) [I-1494] | 14.7 µM
6 | Ac-[αAllylPro]D[tBuAla][B5(27)]DDAAFL[PyrS2][3Thi][Bta][hSer]-NH2 (staple 1-4, 4-11) [I-1499] | 6.4 µM
7 | Ac-[αAllylPro]D[tBuAla][B5(27)]DDAAFL[PyrS2][3Thi][Bta]F-NH2 (staple 1-4, 4-11) [I-1496] | 9.4 µM
8 | Ac-[αAllylPro]D[tBuAla][B5(27)]DDAAFL[PyrS2][3Thi][Bta]S-NH2 (staple 1-4, 4-11) [I-1493] | 4.9 µM
9 | Ac-[αAllylPro]D[tBuAla][B5(27)]DDAAFL[PyrS2][3Thi][Bta]V-NH2 (staple 1-4, 4-11) [I-1495] | 23.9 µM
10 | Ac-[αAllylPro]D[tBuAla][B5(27)]DDAAFL[PyrS2][3Thi][Bta][dQ]-NH2 (staple 1-4, 4-11) [I-1500] | 4.7 µM

Biological target: T2, full-length beta-Catenin (Uniprot ID …)
Assay: AlphaScreen competition vs biotin-TCF4(10-53) on full-length beta-catenin
Method in brief: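 Titrated peptide was preincubated 15 minutes at 20° C, then donor and acceptor beads were added for 60 minutes at 20° C protected from light. Reads were done in duplicate, and data were fitted to a 1:1 binding model with Hill slope; concentrations are final.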

Row | Binder | EC50
11 | B1 | 0.121 µM
12 | B2 | ≥ 10 µM
13 | B3 | 3.6 µM
14 | B4 | ≥ 10 µM
15 | B5 | 3.24 µM
16 | B6 | 9.9 µM
17 | B7 | 1.24 µM
18 | B8 | 0.054 µM

Source: US20240116985A1 (published 2024)
